According to paper PMC12251660, “The Structural Deciphering of the α3 Helix Within ZmHsfA2’S DNA-Binding Domain for the Recognition of Heat Shock Elements in Maize”:

Legend:
Assay in all cases: EMSA; EMSA/Gel-Shift buffer (Beyotime GS009; composition, salt and pH not stated), 10 uL, 25 C 30 min; 6% native PAGE in 0.5x TBE at 4 C
Conditions in all cases: protein: recombinant; tags: 6xHis (stated C-terminal; pET-30a); chain copies: 3; label: biotin; blunt
ZmHsf17-R105A = ZmHsf17-R105A (Zea mays, UniProt A0A5J6CYG6 1-373, R105A)
Chain of ZmHsf17-R105A (A0A5J6CYG6 entry or part of it R105A | R105A R105A): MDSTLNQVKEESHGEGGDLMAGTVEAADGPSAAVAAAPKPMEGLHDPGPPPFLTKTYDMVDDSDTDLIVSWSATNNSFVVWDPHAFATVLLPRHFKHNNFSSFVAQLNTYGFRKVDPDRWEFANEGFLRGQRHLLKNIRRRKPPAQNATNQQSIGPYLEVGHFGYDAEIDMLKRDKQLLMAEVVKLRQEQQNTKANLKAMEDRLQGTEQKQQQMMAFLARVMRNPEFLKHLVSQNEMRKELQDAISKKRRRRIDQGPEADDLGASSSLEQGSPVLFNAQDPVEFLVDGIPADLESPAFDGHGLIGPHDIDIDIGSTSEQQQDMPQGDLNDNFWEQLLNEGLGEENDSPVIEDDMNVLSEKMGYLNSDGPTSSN

ZmHsf17-K142A = ZmHsf17-K142A (Zea mays, UniProt A0A5J6CYG6 1-373, K142A)
Chain of ZmHsf17-K142A (A0A5J6CYG6 entry or part of it K142A | K142A K142A): as the sequence (A0A5J6CYG6 entry or part of it R105A | R105A R105A) above, with A105R, K142A counted along it

ZmHsf17-T109A = ZmHsf17-T109A (Zea mays, UniProt A0A5J6CYG6 1-373, T109A)
Chain of ZmHsf17-T109A (A0A5J6CYG6 entry or part of it T109A | T109A T109A): as the sequence (A0A5J6CYG6 entry or part of it R105A | R105A R105A) above, with A105R, T109A counted along it

B1: ZmPAH1-HSE2 (dsDNA)
DNA 1: CAGCGTCACATGACGGGAATTTTCACGTCTTTTCAGCCCT
DNA 2: AGGGCTGAAAAGACGTGAAAATTCCCGTCATGTGACGCTG
B1: no binding (ZmHsf17-R105A); binds (ZmHsf17-K142A); binds (ZmHsf17-T109A).
